Here are results for two substances from paper PMC10853780.

The target of series [1] is HA-tagged DAXX (Y124A, R371W) (UniProt Q9UER7). The experiment in a line: co-IP; as the DAXX-ATRX co-IP (anti-HA magnetic beads on SF188 cell extracts, ethidium bromide), proteins separated on a 16% acrylamide gel; immunoblot for DAXX, H3.3 and H4. In general terms: Immunoblotting shows a protein as a band on a membrane.
Series [2] concerns the target HA-tagged DAXX (Y124A) (human) (UniProt Q9UER7). Nature of the series: co-IP; anti-HA magnetic beads (Pierce HA-Tag Magnetic IP/Co-IP Kit) on SF188 cell extracts (500 μg protein), 4 h at 4°C, 50 μg/ml ethidium bromide throughout, final wash with 200 mM NaCl; immunoblot for DAXX and ATRX.

As to H3.3-H4 heterodimer, the “percent decrease of the interaction, corrected for the reduced stability of the mutant” value in series [1] is “its interaction with H3.3 and H4 was decreased by > 80%”. “alpha-thalassemia/mental retardation syndrome X-linked (ATRX), P46100 1-2492” came in with a percent reduction of the interaction against DAXX WT in series [2] above 95%.
